The data set concerns Escherichia coli TOP10. Kind of data set: shrunken log2 fold change of peptide-encoding DNA abundance (4.5 h post-induction vs induction); higher = less antimicrobial activity (less host growth inhibition). The conditions noted are these: time post-induction: 4.5 h; library: site-saturation at positions 5, 18, 19, 20.
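Further: peptides expressed intracellularly from a pBAD plasmid library in pooled LB shake-flask culture, induced with 0.3% L-arabinose, DNA abundance read by NGS, three biological replicates, DESeq2 with apeglm shrinkage.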

For RRIRGRPPRLPRPRPRPNWVPRP, the “shrunken log2 fold change” value turned out to be 0.325. For the sequence RRIRQRPPRLPRPRPRPPYVPRP, the “shrunken log2 fold change” value stood at 0.191.

On to RRIRYRPPRLPRPRPRPEPDPRP, for which the “shrunken log2 fold change” value came to 0.0689. Take RRIRSRPPRLPRPRPRPVYWPRP: the “shrunken log2 fold change” value is -0.175. The result for RRIRYRPPRLPRPRPRPPNMPRP reads -0.863; that for RRIRGRPPRLPRPRPRPWVKPRP, 0.0642. The result for RRIRFRPPRLPRPRPRPVDTPRP reads -0.123. Take RRIRERPPRLPRPRPRPDGDPRP: the “shrunken log2 fold change” value came out at 0.03. For the sequence RRIRVRPPRLPRPRPRPAMIPRP, the “shrunken log2 fold change” value was -0.07.

For RRIRLRPPRLPRPRPRPLSRPRP, the “shrunken log2 fold change” value is -0.247. As to RRIRTRPPRLPRPRPRPWIAPRP, the “shrunken log2 fold change” value was -0.0119. For the sequence RRIRWRPPRLPRPRPRPFTGPRP, the “shrunken log2 fold change” value stood at 0.0256. For RRIRCRPPRLPRPRPRPDPSPRP, the “shrunken log2 fold change” value was -0.0265.

On to RRIRERPPRLPRPRPRPVARPRP, for which the “shrunken log2 fold change” value is -0.168. The result for RRIRQRPPRLPRPRPRPRDYPRP reads 0.0272; that for RRIRTRPPRLPRPRPRPCTKPRP, 0.0197. The result for RRIRERPPRLPRPRPRPWACPRP reads 0.0618; that for RRIRGRPPRLPRPRPRPPHIPRP, 0.551. As to RRIRNRPPRLPRPRPRPWWMPRP, the “shrunken log2 fold change” value was -0.0246. In the case of RRIRIRPPRLPRPRPRPTSLPRP, the “shrunken log2 fold change” value was -0.14. For the sequence RRIRRRPPRLPRPRPRPMIEPRP, the “shrunken log2 fold change” value came to 0.177. Under RRIRQRPPRLPRPRPRPTIIPRP stands -0.244; under RRIRVRPPRLPRPRPRPWQPPRP, 0.146. Regarding RRIRPRPPRLPRPRPRPFEFPRP, the “shrunken log2 fold change” value turned out to be 0.0458. With RRIRSRPPRLPRPRPRPHAIPRP, the “shrunken log2 fold change” value is -0.144. Take RRIRLRPPRLPRPRPRPTCFPRP: the “shrunken log2 fold change” value is -0.156. Regarding RRIRARPPRLPRPRPRPMPYPRP, the “shrunken log2 fold change” value was -0.105.

For RRIRDRPPRLPRPRPRPIMVPRP, the “shrunken log2 fold change” value was -0.103. The result for RRIRVRPPRLPRPRPRPFHQPRP reads 0.032; that for RRIRQRPPRLPRPRPRPHCKPRP, -0.187. As for RRIRTRPPRLPRPRPRPSCPPRP, the “shrunken log2 fold change” value was -0.444. The result for RRIRIRPPRLPRPRPRPNHTPRP reads -0.541; that for RRIRNRPPRLPRPRPRPQQFPRP, -0.0018.

On to RRIRERPPRLPRPRPRPRAVPRP, for which the “shrunken log2 fold change” value was found to be 0.264. Consider RRIRCRPPRLPRPRPRPNHRPRP, for which the “shrunken log2 fold change” value was -0.233. Turning to RRIRQRPPRLPRPRPRPETNPRP, the “shrunken log2 fold change” value amounted to 0.0137. The result for RRIRTRPPRLPRPRPRPTTPPRP reads 0.245; that for RRIRYRPPRLPRPRPRPRLVPRP, -0.0287; that for RRIRPRPPRLPRPRPRPQWHPRP, -0.176.

With RRIRQRPPRLPRPRPRPQLVPRP, the “shrunken log2 fold change” value came out at 0.128. Turning to RRIRCRPPRLPRPRPRPVSVPRP, the “shrunken log2 fold change” value is -0.0739.

On to RRIRRRPPRLPRPRPRPPKQPRP, for which the “shrunken log2 fold change” value came out at 0.459.

Consider RRIRPRPPRLPRPRPRPTTPPRP, for which the “shrunken log2 fold change” value was 0.322. For the sequence RRIRHRPPRLPRPRPRPCPTPRP, the “shrunken log2 fold change” value is -0.258. As for RRIRERPPRLPRPRPRPNRRPRP, the “shrunken log2 fold change” value was -0.0103.

Regarding RRIRLRPPRLPRPRPRPFPTPRP, the “shrunken log2 fold change” value is -0.158.

RRIRRRPPRLPRPRPRPLISPRP: the “shrunken log2 fold change” value was -0.111. The result for RRIRTRPPRLPRPRPRPDLKPRP reads 0.156; that for RRIRKRPPRLPRPRPRPRFSPRP, 0.17; that for RRIRFRPPRLPRPRPRPNSHPRP, -0.432.
